Data from the nanobody polyreactivity screen of Harvey et al. (2022).

Experiment: yeast display, Sf9 membrane polyspecificity reagent, FACS + sequencing; frameworks hold sequencing errors
Summary of the method: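 Galactose-induced (36–48 hours) yeast carrying a synthetic nanobody display library were exposed to 10% biotinylated, detergent-solubilized Sf9 membrane reagent at 4 °C for 1 hour. FACS followed streptavidin microbead enrichment, using low and high (top ~1%) gates for expression (anti-HA) and reagent binding (streptavidin). Colony PCR, MiSeq 2 × 250 sequencing and CDR-length filtering followed. Labels for polyreactivity reflect the gate of origin.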

Row | Sequence | polyreactivity (PSR sort gate)
1 | QVQLVESGGGLVQAGGSLRLSCAASGSTFVRYPMGWYRPAPGKERELVAGISRVGNTYYADSVKGRFTISRDNAKNTVYLQMNSLKPEDTAVYYCAARSSRWDGYDYWGQGTQVTVSS | high polyreactivity
2 | QVQLVESGGGLVQAGGSLRLSCAASGTFFIYAMGWYRHAPGKERELVATISTGGSTNYADSVKGRFTISRDNAKNTVYLQMNSLKQEDTAVYYCAAEWLYPHDGGYPRPMDYWGQGTQVTVSS | low polyreactivity
3 | QVQLVESGGVLVQAGGCLRLSCAASGSIFSVNTMGWYRQAPGKERELVATIRTGDSTNYADSVKGRFTISRDNAKNTVYLQMNSLKPEDTAVYYCAAEWSSLNFEYWGQGSQVTVSS | low polyreactivity
4 | QVQLVESVGGLVQAGGSLRLSCAASGYTLGDYAMGWYRQAPGKERELVAVITRNGGRTYYADSVKGRFTISRDNAKNTVYLQMNSLKPEDTAVYYCNRDTSIRHYNYWGQGTQVTVSS | high polyreactivity
5 | QVQLVESGGGLVQAGGSLRLSCAASGYTFDAYSMGWYRQAPGKERELVAAITTNGGSTYYADSVKGRFTISRDNAKNTVYLQMNSLKPEDTAVYYCNAEYSYEGRYPYDYWGQGTQVTVSS | low polyreactivity
6 | QVQLVESGGGLVQAGGSLRLSCAASGNIFDGYAMGWYRQAPGKERELVAAITSSAGSTYYADSVKGRFTISRDNAKNTVYLQMNSLKPEDTAVYYCNKVTKYRPIEGSWGQGTQVTVSS | high polyreactivity
7 | QVQLVESGGGLVQPGGSLRLSCAASGSNFEPYAMGWYRQAPGKERELVAAISSGGSTNYADSVKGRFTISRDNAKNTVYLQMNSLKPEDTAVYFCAAAYYTVGWLFYDYWYPFAYYYWGQGTQVTVSS | low polyreactivity
8 | QVQLVESGGGLVQAGGSLRLSCAASGFIFYSNAMGWYRQAPGKARELVAAISWGGGRTYYADSVKGRFTISRDNAKNTVYLQMNSLKPEDTAVYYCAADTIVGNGIKFDYWGQGTQVTVSS | high polyreactivity
9 | QVQLVESGGGLVQAGGRLRLSCAASGLIIEWYAMGWFRQAPGKERELVAAITGRGSSTFYADSVKGRFTISRDNAKNTVYLQMNSLKPEDTGVYYCAVATVKQYRSDYWGQGTQVTVSS | low polyreactivity
10 | QVQHVESGGGIVQAGGSLRISCSASGRTLGYYAMGLYRQAPGKETEMVAASSRSGGSTYYADSVQGRFTNSRDNAKNTVYVEMQSLNPEDTAVYDCAATYGPSRYRYDYWGQGTQVTVSS | high polyreactivity
11 | QVQLVESGGCSVQAGGSLRLSCAAAGRIFSYYAMGWYRQAPGKERELVAAITSGGRTYYADSVKGRFTISRDNAKTTVYLQMNSLKPEDTAVYYCAVGVRNQYYYWGQGTQVTVSS | high polyreactivity
12 | QVQLVESGGGLVQAGGSLRLSCAASGRIFTDYDMGGYRHAPGKERELVASISGSDGNTDYADSVKGRFTISRDNAKNTVYLQMNSLKPEDTAVYYCAADLRVYDFFRYPETYGYWGQGTQVTVSS | low polyreactivity
13 | QVQLVESGGGLVQAGGSLRLSCAASGSTFHLNAMGWYRQAPGKERELVAAISWDGSSTSYADSVKGRFTISRDNANNTVYLQMNSLKPEDTAVYYCAADDTLDRVPTTFIDGSPGYGYWGQGTQVTVSS | low polyreactivity
14 | QVQLVESGGGLVQAGGSLRLSCAASGSTFFYYDMGWYRQAPGKERELVAAITSGGSTYYADSVKGLFTISRDNAKNTVYLHMNSLKPEDTAVYYCNAESYFWDFYDYDHWGQGTQVTVSS | low polyreactivity
15 | QVQLVESGGGLVQAGGSLRLSCAASGLTFAYYAMGWYRQAPGKERELVATISRSGSTYYADSVKGRFTISRDNAKNTVYLQMNSLKPEDTAVDYCATAYHHYVYRQYTFGRGIYDFWGQGTQVTVSS | high polyreactivity
16 | QVQLVESGGGLVQAGGSLRLSCAASGRIFYYYAMGWYRQAPGKERELVAAISQRGGRTYYADSVKGRFTISRDNAKNTVYLQMNSLKPEDTAVYYCNDYPVYGRYTHYGYGHWGQGTQVTVSS | high polyreactivity

Row | Sequence | polyreactivity (PSR sort gate)
17 | QVQLVESGGGLVQAGGSLRLSCAASGSIYDSYAMGWYRQAPGKERELVATINTSGGSTYYADSVKGRFTIHDNAKNTVYLQMNSLKPEDTAVYYCNAGRWVYWQNNFGDYGYWGQGTQVTVSS | low polyreactivity
18 | QVQLVETGRGLVQAGGSLRISCAPCGFTFWRNAMGGYRQAPGKERELVAAINWSGGSPYYADSVKGRFTISRDNAMNTVYLQINSRKADDTAVYYCNRRGQYTFWPIHEYWGQGTQVTVSS | high polyreactivity
19 | QVQLVESGGGLVQAGGSLRLSCAASGLRFNVYAMGWYRQAPGKERELVAAITSGGSTHYADSVKGRFTISRDNAKNTVYLQMNSLKPEDTAVYYCNKELATARGQSLYRTYSGYGYRGQGTQVTVSS | high polyreactivity
20 | QVQLVESCGGLVQAGGSLRLSCAASGLTFPKYAMGWYRQAPGKERELVARISYSGASTYYADSVKGRFTISRDNAKNTVYLQMNSLKPEDTAVYYCAARIYRVYYVHFAPYYYWGQGTQVTVSS | high polyreactivity
21 | QVQLVETVGGLVQAGGSLRLRCAASGSIFLYNAMGWYRQAPGKERELFAVINGRGGTYYADSVKGRFTISRDNAKNTVYLQINSLKPEDTAVYYCATGYTPSAWYDSVRFEDRDSWGQGTQVTVSS | low polyreactivity
22 | QVQLVESGGGLVQAGGSLRLSCAASGSIFIYNVMGWYRPAPGKERELVATSRGSGGSTYYADSVKGRFTISRDTAKNTVYLHMNSLKPEDTAVYFCCRRDYPYQWGRAYNYWGQGTQVTVSS | high polyreactivity
23 | QVQLVESGGGLVQAGGSLRLSCAASGSILKPYAMGWYRQAPGKERELVARISSSGGRTYYADSVKGRFTISRDNAKNTFYFKMNSLKPEDTAVYYFAAAIVSYGRNDYWGQGTQVTVSS | high polyreactivity
24 | QVQLVESGGGLVQAGGSLRLSCAASGSTFTVNGMGWYRQAPGKERELVASITWSGGSTYYADSVKGRFTISRDNAKNTVYLQMNSLKPEATAVYYCAADEKLYITGYDYWGQGTQVTVSS | low polyreactivity
25 | QVQLVESGGGLVQAGGSLRISCAASGRIFATNAMGWYRQAPGKERELVATITRSAGRTYYADSVKGRFTISRDTAKNTVYLQMNSLKPEDNAVYYFAASYGDTEPGYREYDYWGQGTQVTVSS | low polyreactivity
26 | QVQLVESGGGLVQAGGSLRLSCAASGRIIYRNAMGWSRQSPGKEREMVATITKNGGATYYADSVKGRFTISRDNAKNTVYLQMNTLKPEDTAVYYCATGSRGYKASPQWRDYWGQGTQVTVSS | high polyreactivity
27 | QVQLVESGGGLDQAGGSLRLTCAASGFNFSYYVMGWYRQAPGKERELVAAITKSGGSTYYADSVKGRFTIARDNAKNTVYLQMYSLKPEDTAVYFLAAVRGYRCYDYWGQGTQVTVSS | high polyreactivity
28 | QVQLVESGGGLVQAGGSLRLSCAASGFIFGGNAMGWYRPAPGKERELVAAISRRGGNTYYADSVKGRFTISRDNAKITVYLQMNSLKPEDTAVYYCATGTSYWYLWAYDYWGQGTQVTVSS | high polyreactivity
29 | QVQLVESGGGLVQAGGSLRLSCAASGRIFNRYAMGWYRQAPGKERELVAAISRGGGTNYADSVKGRFTISRDNAKNTVYLQMNSLKPEDTAVYYCAAARGHNVETSTTYDRGDYWGQGTQVTVSS | low polyreactivity
30 | QVQLVESGGGLVQAGGSLRLSCAASGYTFRIYAMGWYRLAPGKERELVAGISSRGTSTYYADSVKGRFTISRDNAKNTVYLQMNSLKPEDTAVYYCAAGRYGRLYGYWGQGTQVTVSS | high polyreactivity
31 | QVQLVESGGGLVQAGGSLRLSCAASGSTFPLNAMGWYRQAPGKESEFLDAISYRGSSTYYADSVKGRFTISRDNAKNTVYLQMNSLKPEDTAVYYCSANPNTYYYRRGYDYWGQGTQVTVSS | high polyreactivity
